Measured values from paper PMC12817928, “Demonstration of in vivo efficacy, cryo-EM-epitope identification, and breadth of two anti-alphavirus bispecific single domain antibodies” (Journal of Virology, 2025).

How the values were obtained:
Assay in all cases: cryo-EM structure
Conditions in all cases: both partners purified
[1] = biological target: T1, VEEV E1 envelope glycoprotein (strain TC83), in the VLP (Venezuelan equine encephalitis virus, …)
T1 construct: also called E1 subunit
T1 chain 1: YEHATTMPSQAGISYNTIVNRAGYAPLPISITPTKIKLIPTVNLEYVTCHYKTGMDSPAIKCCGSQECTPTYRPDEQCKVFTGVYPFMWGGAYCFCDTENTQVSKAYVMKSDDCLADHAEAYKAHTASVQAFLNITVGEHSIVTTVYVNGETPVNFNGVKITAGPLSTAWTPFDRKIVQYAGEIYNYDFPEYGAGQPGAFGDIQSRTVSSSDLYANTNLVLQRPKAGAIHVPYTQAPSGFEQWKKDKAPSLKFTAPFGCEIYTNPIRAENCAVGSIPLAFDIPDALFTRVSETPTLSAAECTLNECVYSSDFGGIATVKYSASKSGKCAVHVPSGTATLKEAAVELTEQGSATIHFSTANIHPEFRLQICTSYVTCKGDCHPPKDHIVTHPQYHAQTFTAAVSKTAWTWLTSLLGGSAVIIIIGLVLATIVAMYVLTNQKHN
T1 chain 2: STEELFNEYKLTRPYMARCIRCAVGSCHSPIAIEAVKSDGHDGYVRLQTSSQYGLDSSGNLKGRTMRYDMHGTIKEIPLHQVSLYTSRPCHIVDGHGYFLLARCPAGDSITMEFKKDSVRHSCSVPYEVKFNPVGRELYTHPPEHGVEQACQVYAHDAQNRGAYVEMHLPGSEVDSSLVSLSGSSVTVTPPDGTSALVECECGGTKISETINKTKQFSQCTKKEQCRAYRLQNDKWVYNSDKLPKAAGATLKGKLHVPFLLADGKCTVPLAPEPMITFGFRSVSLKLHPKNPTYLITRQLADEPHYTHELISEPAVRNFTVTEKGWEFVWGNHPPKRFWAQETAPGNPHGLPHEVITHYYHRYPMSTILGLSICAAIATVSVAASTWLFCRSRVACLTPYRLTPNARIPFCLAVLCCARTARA

[2] = biological target: T2, VEEV E2 envelope glycoprotein (strain TC83), in the VLP (Venezuelan equine encephalitis virus, …, strain)
T2 construct: also called E2 subunit
T2 chain 1: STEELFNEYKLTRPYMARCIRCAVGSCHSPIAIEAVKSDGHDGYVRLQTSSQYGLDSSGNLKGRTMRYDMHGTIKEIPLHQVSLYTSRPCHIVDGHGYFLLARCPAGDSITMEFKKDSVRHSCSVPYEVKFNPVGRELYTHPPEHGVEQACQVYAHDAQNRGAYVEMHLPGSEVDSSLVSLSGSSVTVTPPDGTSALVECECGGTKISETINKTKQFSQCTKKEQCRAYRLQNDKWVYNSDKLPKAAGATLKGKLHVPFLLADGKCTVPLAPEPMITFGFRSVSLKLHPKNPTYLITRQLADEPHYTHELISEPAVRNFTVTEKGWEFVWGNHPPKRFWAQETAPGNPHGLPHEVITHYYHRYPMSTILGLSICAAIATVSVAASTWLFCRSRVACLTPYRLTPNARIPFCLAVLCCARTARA
T2 chain 2: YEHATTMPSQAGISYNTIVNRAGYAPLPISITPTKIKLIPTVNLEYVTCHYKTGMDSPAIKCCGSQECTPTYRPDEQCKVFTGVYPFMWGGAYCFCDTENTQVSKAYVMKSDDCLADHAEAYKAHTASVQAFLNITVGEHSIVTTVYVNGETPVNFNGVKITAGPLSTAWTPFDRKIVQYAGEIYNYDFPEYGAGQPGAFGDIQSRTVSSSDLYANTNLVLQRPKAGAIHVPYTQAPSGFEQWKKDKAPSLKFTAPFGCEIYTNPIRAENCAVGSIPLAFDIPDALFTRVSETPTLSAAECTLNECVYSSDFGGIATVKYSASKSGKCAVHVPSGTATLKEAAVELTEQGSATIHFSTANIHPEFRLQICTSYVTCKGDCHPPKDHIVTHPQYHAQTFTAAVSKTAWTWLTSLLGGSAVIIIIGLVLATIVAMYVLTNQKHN

[3] = biological target: T3, VEEV virus-like particle (VLP), strain TC83 (subtype IAB) (Venezuelan equine encephalitis virus, …, strain)
T3 construct: also called VEEV VLP; VEEV IAB VLP
T3 chain 1: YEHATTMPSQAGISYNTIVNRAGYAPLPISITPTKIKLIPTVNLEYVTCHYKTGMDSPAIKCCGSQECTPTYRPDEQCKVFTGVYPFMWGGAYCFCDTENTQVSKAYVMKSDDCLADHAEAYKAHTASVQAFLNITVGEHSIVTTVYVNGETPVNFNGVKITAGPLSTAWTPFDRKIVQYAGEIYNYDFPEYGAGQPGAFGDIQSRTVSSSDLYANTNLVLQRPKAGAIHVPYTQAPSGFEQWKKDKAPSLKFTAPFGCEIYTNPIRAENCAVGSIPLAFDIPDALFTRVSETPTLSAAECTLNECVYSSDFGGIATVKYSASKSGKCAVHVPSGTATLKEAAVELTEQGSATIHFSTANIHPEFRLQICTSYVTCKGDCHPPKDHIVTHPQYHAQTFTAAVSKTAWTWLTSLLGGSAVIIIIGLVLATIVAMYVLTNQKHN
T3 chain 2: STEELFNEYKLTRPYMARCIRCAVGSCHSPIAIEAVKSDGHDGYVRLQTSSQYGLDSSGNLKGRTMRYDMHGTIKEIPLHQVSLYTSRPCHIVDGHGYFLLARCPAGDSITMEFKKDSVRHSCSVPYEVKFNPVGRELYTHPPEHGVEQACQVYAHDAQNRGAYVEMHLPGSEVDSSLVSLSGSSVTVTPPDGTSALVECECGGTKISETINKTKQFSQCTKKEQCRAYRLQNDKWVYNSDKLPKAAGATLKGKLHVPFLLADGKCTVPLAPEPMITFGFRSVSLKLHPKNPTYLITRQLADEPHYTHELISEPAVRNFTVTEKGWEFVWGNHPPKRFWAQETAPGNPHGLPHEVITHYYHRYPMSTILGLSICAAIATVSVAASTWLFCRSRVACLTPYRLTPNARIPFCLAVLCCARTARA

Measured: binding result

B1: sdAb V2B3 (VHH)
VHH: EVQLQASGGGLVQAGGSLRLSCAASGSIVSINVMAWYRQSPGKERELVAKSSGPFTLYADSVKGRFTISNDAAKNTVDLQMNSLKPEDTAVYYCNAEGLRYPSGTYGPSAVWGQGTQVTVSS
notes: source: ClearColi BL21(DE3), purified (Ni Sepharose, MEP HyperCel, SEC)
binds: all assays above

B2: sdAb V2C3 (VHH)
VHH: DVQLQASGGGSVQAGGSLRLSCVASQNLFEYYTMGWYRQVPGSQRERVALINNGGSNVAGSVEGRFTISRDNAKNSIYLQMNNLKPEDSAVYYCRAFGPADYWGQGTQVTVSS
notes: as for B1
binds: all assays above

B3: sdAb V3A8f (VHH)
VHH: DVQLQASGGGSVQAGGSLRLSCAASGHSFANYHVAWIRQTPGKEREFVGSASRRDDSTYYADFALGRFIISRDNDINTAYLQMNSLKPEDSAVYYCVAAVMAQTTQGWTTDYDLRGQGTQVTVSS
binds: all assays above
